Test [1] deals with Dscam 7.13.25 isoform. As to the kind of experiment: AlphaScreen or HTRF. A general note: In Alpha technology, singlet oxygen from a donor bead excites a nearby acceptor bead.
Test [2] concerns the target T1, Ptp10D-AP (Drosophila, UniProt P35992 43-1197).
T1 sequence (looked up): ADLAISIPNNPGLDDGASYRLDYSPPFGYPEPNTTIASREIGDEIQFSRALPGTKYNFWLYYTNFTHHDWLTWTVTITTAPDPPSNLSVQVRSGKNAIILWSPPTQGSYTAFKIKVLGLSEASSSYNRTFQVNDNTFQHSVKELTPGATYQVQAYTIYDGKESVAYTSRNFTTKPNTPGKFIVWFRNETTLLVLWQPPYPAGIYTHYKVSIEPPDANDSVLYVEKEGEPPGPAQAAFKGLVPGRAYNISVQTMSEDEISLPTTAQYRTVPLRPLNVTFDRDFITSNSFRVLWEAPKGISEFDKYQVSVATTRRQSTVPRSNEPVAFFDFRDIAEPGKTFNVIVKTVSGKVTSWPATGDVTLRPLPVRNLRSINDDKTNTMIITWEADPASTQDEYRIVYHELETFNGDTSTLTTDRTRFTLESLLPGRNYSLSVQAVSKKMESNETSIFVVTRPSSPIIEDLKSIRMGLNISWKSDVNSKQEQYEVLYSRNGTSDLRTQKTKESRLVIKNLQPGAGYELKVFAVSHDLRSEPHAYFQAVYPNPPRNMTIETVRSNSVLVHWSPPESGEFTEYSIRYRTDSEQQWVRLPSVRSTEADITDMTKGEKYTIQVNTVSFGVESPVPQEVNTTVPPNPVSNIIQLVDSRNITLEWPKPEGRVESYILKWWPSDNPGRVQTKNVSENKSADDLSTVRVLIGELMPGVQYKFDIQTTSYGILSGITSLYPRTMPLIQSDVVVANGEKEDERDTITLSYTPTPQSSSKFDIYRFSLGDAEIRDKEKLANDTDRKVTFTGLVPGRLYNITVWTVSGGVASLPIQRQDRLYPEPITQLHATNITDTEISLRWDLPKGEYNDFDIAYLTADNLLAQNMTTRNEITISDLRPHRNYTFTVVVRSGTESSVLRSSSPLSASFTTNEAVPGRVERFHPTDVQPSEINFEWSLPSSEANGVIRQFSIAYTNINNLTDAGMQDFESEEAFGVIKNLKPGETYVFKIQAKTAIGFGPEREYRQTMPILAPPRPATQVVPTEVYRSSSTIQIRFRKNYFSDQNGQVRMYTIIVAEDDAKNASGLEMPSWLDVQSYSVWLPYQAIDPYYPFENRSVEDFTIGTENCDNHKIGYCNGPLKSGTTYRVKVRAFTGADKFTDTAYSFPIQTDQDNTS
As to the kind of experiment: AlphaScreen or HTRF.

Dscam 7.13.25 isoform (natural protein) yielded a fold signal of homophilic binding over heterophilic binding of 7.13.25 to 7.8.25 in test [1] of 178 fold.

B1: Sas-Fc (Fc fusion, Drosophila, UniProt Q04164 42-1635, looked up)
chain: APAGEDAAATTMPPLDTTTDAPDAVAATTTPATTAAEQSSSISSITTEAADGSTTSTTTTTEAANKSNATETDFTTNVPVASSLPEETSVRSTSIEPITSTEPTTTPRQETEGPDQHMVFSNTEPDQSHIQHIPLRDEHAESSGADDATTEMQRQREQDQQQNELNQISNEQDDVVKDLNNFRHPATLITASNSNSEENVEIESDKQVETTTTAVPAAATSTSTEATGTPPTGTPATSTSTVPNEREEDPYHVHILSENHDRLAEHEDYQMLSTSTEESSTTSTTSTTNSTTESGIVAGIVVSQENKATAEPSTATESTSISTSTTTAATAATSTTSRARAMHMNDPEDEAATTIMPDSESVPVINIVEGQHMLQQEDQKDEEEEGVVKESESSSTTEASTTTTEPSPFVAFAGEGRSAGGGNDIELFLHHNGSTHEQLMDLSDVSMDGDQNEGSSKTESSTTSTTTTTAQPETEMPKIVEITASGDTMQRECLANNKSYKHGELMERDCDERCTCNRGDWMCEPRCRGLSYPRGSQRSMANPNCLEKMVEEDECCRVMECSEPQLEPTVVATEGAAPSTNGTGESAVTLPTTDDEATPKPRTDCHYNSGVYKFRERLEIGCEQICHCAEGGVMDCRPRCPERNHTRLDKCVYVKDPKDVCCQLELCDVTLDDHEQQPTPLQSNNNEDPEEIDPFRFQEQARDAGGAKPTCTFKGAEYDVGQQFRDGCDQLCICNEQGIHCAKLECPSNFGLDVQDPHCIRWEPVPADFKPSPPNCCPESMRCVDNGTCSYQGVQIENWSPVPANLTGCDQHCYCENGRVECRAACPPVPALPPADLPCHPALARLLPIPDDECCKHWMCAPQIPKIGGAGQDEETEATSTHSSIPANETTTTTATANKSTSIPSKVPQIKKDEEKRPPASGAFYPTLDGKPPKSIGGLGIFEKPEKPEKAHKKVQHQQQQHQQQEQQEQQQHQNDVIFDGDRTEEQEEPLPPNGGFVPFQFGQQHPHQPHLGPYGFYNPVKPVYEDYNPYEPYDINPNGTPQGKPPPVPTSQSDLFNILGAEQPGHPVHPGHGGPPRIHPGQTQKDNHNLGPQVRIEQILQHLQQTVPGGPPPPPPHQQHQSLTPQLHPQQQQISQQHPGHYVPIVHSGVPPPPPGHGIAIVDGQTVAYESYPVIPGLGVPQHHPQQHQTTPQQHLQQTILPSSSTTSGLSTQASEHSLHQNQGKLAKQQQSGANNLQPDIEVHTLEAIDPRSIRIVFTVPQVYVNLHGRVELRYSNGPSNDTSTWEQQIFAPPEDLIATSQMEFDLPSLEPNSLYKVKITLILRDLNSQPTSSIYTVKTPPERTITPPPPFPDYRPDFQDIFKNVEDPELTVSETNASWLQLTWKKLGDDQMEYVDGVQLRYKELTGMIYSSTPLIHRTLTSYTIQNLQPDTGYEIGLYYIPLAGHGAELRAGHMIKVRTAQKVDVYGFDVTVNVTKVKTQSVEISWNGVPYPEDKFVHIYRAIYQSDAGKEDSSVFKVAKRDSTTGTLIMDLKPGTKYRLWLEMYLTNGNTKKSNVVNFITKPGGPATPGKTGKLLTAGTDQPVGDYYGPL
For B1, the “signal-to-background ratio (Sas-Fc::10D-AP vs. Sas-Fc::69D-AP or Sas-Fc::blank)” value in test [2] was roughly 6 fold.

Values taken from PMC3683152 (Neuron, 2013).
